Assay results taken from PMC3061051 (Nucleic Acids Research, 2010).
Values joined by “and” are separate entries in the source; they are usually repeats but may differ in a detail not shown here. Identical values can stand only once.

Experiments:
AUC [1] = target: the molecule itself; assay: AUC
SEC = target: the molecule itself; assay: SEC
W227A-F231A-RECQ1T1 = W227A-F231A-RECQ1T1 (human, UniProt P46063 49-616, W227A;F231A); assay: EMSA
RECQ1T1 (RECQ1 49-616) = RECQ1T1 (RECQ1 49-616) (human, UniProt P46063 49-616); assay: EMSA
AUC [2] = target: the molecule itself; assay: AUC; remark: listed apart in the source

B1: RECQ1^49-616 (truncated catalytic core of human RECQ1 helicase) (domain or fragment, UniProt P46063 49-616, looked up)
chain: CLEDSDAGASNEYDSSPAAWNKEDFPWSGKVKDILQNVFKLEKFRPLQLETINVTMAGKEVFLVMPTGGGKSLCYQLPALCSDGFTLVICPLISLMEDQLMVLKQLGISATMLNASSSKEHVKWVHAEMVNKNSELKLIYVTPEKIAKSKMFMSRLEKAYEARRFTRIAVDEVHCCSQWGHDFRPDYKALGILKRQFPNASLIGLTATATNHVLTDAQKILCIEKCFTFTASFNRPNLYYEVRQKPSNTEDFIEDIVKLINGRYKGQSGIIYCFSQKDSEQVTVSLQNLGIHAGAYHANLEPEDKTTVHRKWSANEIQVVVATVAFGMGIDKPDVRFVIHHSMSKSMENYYQESGRAGRDDMKADCILYYGFGDIFRISSMVVMENVGQQKLYEMVSYCQNISKCRRVLMAQHFDEVWNSEACNKMCDNCCKDSAFERKNITEYCRDLIKILKQAEELNEKLTPLKLIDSWMGKGAAKLRVAGVVAPTLPREDLEKIIAHFLIQQYLKEDYSFTAYATISYLKIGPKANLLNNEAHAITMQVTKSTQNSFRAESSQTCHSEQGDKKME
In the case of B1, the “stoichiometry N” value (AUC [1]) is reported as 2.

B2: Y564A-RECQ1^T1 (domain or fragment, human, UniProt P46063 49-616, looked up)
chain: CLEDSDAGASNEYDSSPAAWNKEDFPWSGKVKDILQNVFKLEKFRPLQLETINVTMAGKEVFLVMPTGGGKSLCYQLPALCSDGFTLVICPLISLMEDQLMVLKQLGISATMLNASSSKEHVKWVHAEMVNKNSELKLIYVTPEKIAKSKMFMSRLEKAYEARRFTRIAVDEVHCCSQWGHDFRPDYKALGILKRQFPNASLIGLTATATNHVLTDAQKILCIEKCFTFTASFNRPNLYYEVRQKPSNTEDFIEDIVKLINGRYKGQSGIIYCFSQKDSEQVTVSLQNLGIHAGAYHANLEPEDKTTVHRKWSANEIQVVVATVAFGMGIDKPDVRFVIHHSMSKSMENYYQESGRAGRDDMKADCILYYGFGDIFRISSMVVMENVGQQKLYEMVSYCQNISKCRRVLMAQHFDEVWNSEACNKMCDNCCKDSAFERKNITEYCRDLIKILKQAEELNEKLTPLKLIDSWMGKGAAKLRVAGVVAPTLPREDLEKIIAHFLIQQYLKEDYSFTAAATISYLKIGPKANLLNNEAHAITMQVTKSTQNSFRAESSQTCHSEQGDKKME
In the case of B2, the “stoichiometry N” value (SEC) is reported as 2.

B3: W227A-F231A-RECQ1^T1 (domain or fragment, human, UniProt P46063 49-616, looked up)
chain: CLEDSDAGASNEYDSSPAAWNKEDFPWSGKVKDILQNVFKLEKFRPLQLETINVTMAGKEVFLVMPTGGGKSLCYQLPALCSDGFTLVICPLISLMEDQLMVLKQLGISATMLNASSSKEHVKWVHAEMVNKNSELKLIYVTPEKIAKSKMFMSRLEKAYEARRFTRIAVDEVHCCSQAGHDARPDYKALGILKRQFPNASLIGLTATATNHVLTDAQKILCIEKCFTFTASFNRPNLYYEVRQKPSNTEDFIEDIVKLINGRYKGQSGIIYCFSQKDSEQVTVSLQNLGIHAGAYHANLEPEDKTTVHRKWSANEIQVVVATVAFGMGIDKPDVRFVIHHSMSKSMENYYQESGRAGRDDMKADCILYYGFGDIFRISSMVVMENVGQQKLYEMVSYCQNISKCRRVLMAQHFDEVWNSEACNKMCDNCCKDSAFERKNITEYCRDLIKILKQAEELNEKLTPLKLIDSWMGKGAAKLRVAGVVAPTLPREDLEKIIAHFLIQQYLKEDYSFTAYATISYLKIGPKANLLNNEAHAITMQVTKSTQNSFRAESSQTCHSEQGDKKME
With B3 the “stoichiometry N” value (SEC) was 2.

B4: Fork 20 duplex (dsDNA)
DNA 1: GAACGAACACATCGGGTACGTTTTTTTTTTTTTTTTTTTTTTTTTTTTTT
DNA 2: TTTTTTTTTTTTTTTTTTTTTTTTTTTTTTCGTACCCGATGTGTTCGTTC
Binder B4 has a Kd (W227A-F231A-RECQ1T1) of 10 ± 2 nM and a Kd (RECQ1T1 (RECQ1 49-616)) of 8 ± 2 nM.

B5: Δ8-Y564A-RECQ1^FL (natural protein, human, UniProt P46063 1-649, looked up)
chain: MASVSALTEELDSITSELHAVEIQIQELTERQQELIQKKKVLTKKIKQCLEDSDAGASNEYDSSPAAWNKEDFPWSGKVKDILQNVFKLEKFRPLQLETINVTMAGKEVFLVMPTGGGKSLCYQLPALCSDGFTLVICPLISLMEDQLMVLKQLGISATMLNASSSKEHVKWVHAEMVNKNSELKLIYVTPEKIAKSKMFMSRLEKAYEARRFTRIAVDEVHCCSQWGHDFRPDYKALGILKRQFPNASLIGLTATATNHVLTDAQKILCIEKCFTFTASFNRPNLYYEVRQKPSNTEDFIEDIVKLINGRYKGQSGIIYCFSQKDSEQVTVSLQNLGIHAGAYHANLEPEDKTTVHRKWSANEIQVVVATVAFGMGIDKPDVRFVIHHSMSKSMENYYQESGRAGRDDMKADCILYYGFGDIFRISSMVVMENVGQQKLYEMVSYCQNISKCRRVLMAQHFDEVWNSEACNKMCDNCCKDSAFERKNITEYCRDLIKILKQAEELNEKLTPLKLIDSWMGKGAAKLRVAGVVAPTLPREDLEKIIAHFLIQQYAAGPKANLLNNEAHAITMQVTKSTQNSFRAESSQTCHSEQGDKKMEEKNSGNFQKKAANMLQQSGSKNTGAKKRKIDDA
For B5, the “stoichiometry N” value (AUC [2]) was 2.

B6: Full-length RECQ1 (RECQ1^FL) (natural protein, human, UniProt P46063 1-649, looked up)
chain: MASVSALTEELDSITSELHAVEIQIQELTERQQELIQKKKVLTKKIKQCLEDSDAGASNEYDSSPAAWNKEDFPWSGKVKDILQNVFKLEKFRPLQLETINVTMAGKEVFLVMPTGGGKSLCYQLPALCSDGFTLVICPLISLMEDQLMVLKQLGISATMLNASSSKEHVKWVHAEMVNKNSELKLIYVTPEKIAKSKMFMSRLEKAYEARRFTRIAVDEVHCCSQWGHDFRPDYKALGILKRQFPNASLIGLTATATNHVLTDAQKILCIEKCFTFTASFNRPNLYYEVRQKPSNTEDFIEDIVKLINGRYKGQSGIIYCFSQKDSEQVTVSLQNLGIHAGAYHANLEPEDKTTVHRKWSANEIQVVVATVAFGMGIDKPDVRFVIHHSMSKSMENYYQESGRAGRDDMKADCILYYGFGDIFRISSMVVMENVGQQKLYEMVSYCQNISKCRRVLMAQHFDEVWNSEACNKMCDNCCKDSAFERKNITEYCRDLIKILKQAEELNEKLTPLKLIDSWMGKGAAKLRVAGVVAPTLPREDLEKIIAHFLIQQYLKEDYSFTAYATISYLKIGPKANLLNNEAHAITMQVTKSTQNSFRAESSQTCHSEQGDKKMEEKNSGNFQKKAANMLQQSGSKNTGAKKRKIDDA
B6 was tested, and the “stoichiometry N” value (AUC [2]) was 4 and 2.

B7: Y564A-RECQ1^FL (natural protein, human, UniProt P46063 1-649, looked up)
chain: MASVSALTEELDSITSELHAVEIQIQELTERQQELIQKKKVLTKKIKQCLEDSDAGASNEYDSSPAAWNKEDFPWSGKVKDILQNVFKLEKFRPLQLETINVTMAGKEVFLVMPTGGGKSLCYQLPALCSDGFTLVICPLISLMEDQLMVLKQLGISATMLNASSSKEHVKWVHAEMVNKNSELKLIYVTPEKIAKSKMFMSRLEKAYEARRFTRIAVDEVHCCSQWGHDFRPDYKALGILKRQFPNASLIGLTATATNHVLTDAQKILCIEKCFTFTASFNRPNLYYEVRQKPSNTEDFIEDIVKLINGRYKGQSGIIYCFSQKDSEQVTVSLQNLGIHAGAYHANLEPEDKTTVHRKWSANEIQVVVATVAFGMGIDKPDVRFVIHHSMSKSMENYYQESGRAGRDDMKADCILYYGFGDIFRISSMVVMENVGQQKLYEMVSYCQNISKCRRVLMAQHFDEVWNSEACNKMCDNCCKDSAFERKNITEYCRDLIKILKQAEELNEKLTPLKLIDSWMGKGAAKLRVAGVVAPTLPREDLEKIIAHFLIQQYLKEDYSFTAAATISYLKIGPKANLLNNEAHAITMQVTKSTQNSFRAESSQTCHSEQGDKKMEEKNSGNFQKKAANMLQQSGSKNTGAKKRKIDDA
B7 was tested, and the “stoichiometry N” value (AUC [2]) was 2 and 4.
